From US20030229006A1, “Amphiphilic oligomers” (priority 1993, published 2003)

What was measured:
[1] = pH 1.3
Pepsin (Gastric) = conditions: pH 1.3
Pancreatin = conditions: pH 7.5
Chymotrypsin = conditions: pH 6
albino mice = assay: Blood glucose after oral glucose challenge in fasted mice (Example IV); format: in vivo
Experimental: Comparative studies using bovine insulin were conducted on polymer-insulin conjugates and on native insulin to determine their relative stability and activity in animal models. In the animal studies, the efficacy of the polymer-insulin in lowering the blood level was compared to that of native insulin. Female and male albino mice averaging 25 g in weight were fasted overnight and used in groups of five for each treatment conducted in several phases over a period of two days. […] Conjugate 1) Group 3, 100 μg/kg, orally); or Conjugate 1 (Group 4, 100 μg/kg, subcutaneously) at time 0. […] Animals were fasted overnight before treatment and for the duration of the study. All test materials were prepared in phosphate buffered saline, pH 7.4. […] At the scheduled sample time blood was collected from the tail vein and immediately analyzed for glucose content using a One Touch Digital Glucose Meter (Life Scan).

[2] = Closed loop assay, serum insulin by ELISA; format: in vivo, Sprague-Dawley rats; conditions: 10 and 30 milligrams of insulin per kilogram
Experimental: FIG. 3 is a graph of ELISA assay results for native insulin in the NRS pool of various Sprague-Dawley rats, showing insulin concentration as a function of time, prior to and after dosing with insulin, at respective doses of 10 milligrams of insulin per kilogram of body weight, and at 30 milligrams of insulin per kilogram of body weight. Two rats were dosed at 10 milligrams insulin per kilogram of body weight (Rats C and I) and two rats were dosed at 30 milligrams insulin per kilogram of body weight (Rats K and L).
FIG. 4 is a graph of ELISA assay results for insulin in the NRS pool of various Sprague-Dawley rats, showing insulin concentration as a function of time, prior to and after dosing with insulin, at respective doses of 10 milligrams of insulin per kilogram of body weight, and at 30 milligrams of insulin per kilogram of body weight, wherein the insulin is administered as a conjugate, insulin-hexyl-PEG7-OMe.

pancreatomized dogs = assay: Blood glucose after oral microemulsion insulin formulation; format: in vivo; conditions: 1.0 mg/kg orally, emulsion formulation (native Zinc insulin or Hex-insulin mixture)
Experimental: (§1) FIG. 6 is a graph of insulin and blood glucose levels as a function of time, after dosing of canine subjects with a microemulsion insulin formulation representative of the present invention. The respective curves shown in the graph include native Zinc insulin; glucose ( ), hex-insulin; glucose (▪); native Zinc insulin; insulin (Δ); and hex-insulin; insulin (Δ).
(§2) Glucose data were normalized to the baseline glucose levels (0 minutes). Dogs were dosed orally with one of two emulsion formulations (native Zinc insulin or Hex-insulin mixture). The dose was adjusted to 1.0 mg/kg. Samples were collected at 30 minute intervals. The data were corrected for Hex-insulin reactivity in the BMI ELISA and Pharmacia RIA tests.

[3] = Serum insulin after oral microemulsion insulin formulation; format: in vivo, dogs; conditions: 1.0 mg/kg orally
Experimental: as §1, §2

Row | Substance | Stability, Acid [1] [h] | Stability, Pepsin (Gastric) 1.5 units/mL (Pepsin (Gastric)) [min] | Stability, Pancreatin 6 units/mL (Pancreatin) [min] | Stability, Chymotrypsin (Chymotrypsin) [min] | Duration of hypoglycemic effect (albino mice; 100 μg/kg subcutaneously) [h] | Blood glucose levels (albino mice; 100 μg/kg subcutaneously, 30 minute time point, control = Group 5, untreated) | Blood glucose levels lowered to a maximum of (albino mice; 1.5 mg/kg orally by gavage) | Time of maximum response after treatment (albino mice; 1.5 mg/kg orally by gavage) [min] | Glucose levels after four hours (albino mice; Group 2, 1.5 mg/kg orally) | Insulin concentration over the timecourse [2] | Glucose return to baseline by (pancreatomized dogs) [min] | Time of maximal glucose depression (pancreatomized dogs) [min] | Time of peak insulin immunoreactivity in the serum after dosing ([3]; emulsion formulation (native Zinc insulin or Hex-insulin mixture)) [min] | Serum insulin return to baseline ([3]; emulsion formulation, in all cases) [min]
1 | Insulin (Na): native (bovine) insulin, sodium form, comparator in stability studies | 153 | 9 | 77 | 13 |  |  |  |  |  |  |  |  |  | 
2 | native insulin: unconjugated insulin comparator: bovine insulin in Example IV, native Zinc insulin emulsion in Example XIX |  |  |  |  | 3.5 | approximately 30 % of control | 60 % of control | 30 | remained above control | flat throughout the timecourse | 360 to 480 | 9 to 180 | ≤ 30 | 120 to 240
